Key:
Experiment in all cases: cell-based or functional assay
[1] = target: HIV-1 Env of pseudovirus 1006_11_C3_1601 (HIV-1)
[2] = target: HIV-1 Env of pseudovirus 1012_11_TC21_3257 (HIV-1)
[3] = target: HIV-1 Env of pseudovirus 1054_07_TC4_1499 (HIV-1)
[4] = target: HIV-1 Env of pseudovirus 1056_10_TA11_1826 (HIV-1)
[5] = target: HIV-1 Env of pseudovirus 231965.c01 (HIV-1)
[6] = target: HIV-1 Env of pseudovirus 231966.c02 (HIV-1)
[7] = target: HIV-1 Env of pseudovirus 249M B10 (HIV-1)
[8] = target: HIV-1 Env of pseudovirus 3301.v1.c24 (HIV-1)
[9] = target: HIV-1 Env of pseudovirus 6041.v3.c23 (HIV-1)
[10] = target: HIV-1 Env of pseudovirus 6545.v4.c1 (HIV-1)
[11] = target: HIV-1 Env of pseudovirus 6811.v7.c18 (HIV-1)
[12] = target: HIV-1 Env of pseudovirus 7030102001E5(Rev-) (HIV-1)
[13] = target: HIV-1 Env of pseudovirus 89-F1_2_25 (HIV-1)
[14] = target: HIV-1 Env of pseudovirus AC10.0.29 (HIV-1)
[15] = target: HIV-1 Env of pseudovirus BJOX028000.10.3 (HIV-1)
[16] = target: HIV-1 Env of pseudovirus CNE17 (HIV-1)
[17] = target: HIV-1 Env of pseudovirus CNE19 (HIV-1)
[18] = target: HIV-1 Env of pseudovirus CNE20 (HIV-1)
[19] = target: HIV-1 Env of pseudovirus CNE21 (HIV-1)
[20] = target: HIV-1 Env of pseudovirus CNE52 (HIV-1)
[21] = target: HIV-1 Env of pseudovirus Ce1086_B2 (HIV-1)
[22] = target: HIV-1 Env of pseudovirus Ce1176_A3 (HIV-1)
[23] = target: HIV-1 Env of pseudovirus Ce703010054_2A2 (HIV-1)
[24] = target: HIV-1 Env of pseudovirus Ce704809221_1B3 (HIV-1)
[25] = target: HIV-1 Env of pseudovirus Du172.17 (HIV-1)
[26] = target: HIV-1 Env of pseudovirus P0402_c2_11 (HIV-1)
[27] = target: HIV-1 Env of pseudovirus Q842.d12 (HIV-1)
[28] = target: HIV-1 Env of pseudovirus R2184.c04 (HIV-1)
[29] = target: HIV-1 Env of pseudovirus SC05_8C11_2344 (HIV-1)
[30] = target: HIV-1 Env of pseudovirus T250-4 (HIV-1)
[31] = target: HIV-1 Env of pseudovirus T251-18 (HIV-1)
[32] = target: HIV-1 Env of pseudovirus T278-50 (HIV-1)
[33] = target: HIV-1 Env of pseudovirus TRJO4551.58 (HIV-1)
[34] = target: HIV-1 Env of pseudovirus X1254_c3 (HIV-1)
[35] = target: HIV-1 Env of pseudovirus ZM135M.PL10a (HIV-1)
[36] = target: HIV-1 Env of pseudovirus ZM233M.PB6 (HIV-1)
[37] = target: HIV-1 Env of pseudovirus ZM53M.PB12 (HIV-1)

## PGT145 (antibody)
[1]
  IC50: > 50 µg/mL
  IC80: > 50 µg/mL
[2]
  IC50: 0.009 µg/mL
  IC80: 0.025 µg/mL
[3]
  IC50: > 50 µg/mL
  IC80: > 50 µg/mL
[4]
  IC50: 0.23 µg/mL
  IC80: 0.938 µg/mL
[5]
  IC50, titer in TZM.bl cells: 0.403 µg/mL
  IC80, titer in TZM.bl cells: 15 µg/mL
[6]
  IC50, titer in TZM.bl cells: < 0.001 µg/mL
  IC80, titer in TZM.bl cells: 0.01 µg/mL
[7]
  IC50: 0.947 µg/mL
  IC80: 41.3 µg/mL
[8]
  IC50, titer in TZM.bl cells: 0.219 µg/mL
  IC80, titer in TZM.bl cells: 4.22 µg/mL
[9]
  IC50, titer in TZM.bl cells: 0.964 µg/mL
  IC80, titer in TZM.bl cells: > 50 µg/mL
[10]
  IC50, titer in TZM.bl cells: 0.114 µg/mL
  IC80, titer in TZM.bl cells: 3.1 µg/mL
[11]
  IC50, titer in TZM.bl cells: > 50 µg/mL
  IC80, titer in TZM.bl cells: > 50 µg/mL
[12]
  IC50: > 50 µg/mL
  IC80: > 50 µg/mL
[13]
  IC50, titer in TZM.bl cells: 0.8 µg/mL
  IC80, titer in TZM.bl cells: 20 µg/mL
[14]
  IC50: 0.01 µg/mL
  IC80: 0.025 µg/mL
[15]
  IC50, titer in TZM.bl cells: > 50 µg/mL
  IC80, titer in TZM.bl cells: > 50 µg/mL
[16]
  IC50: 0.091 µg/mL
  IC80: 1.16 µg/mL
[17]
  IC50: 0.103 µg/mL
  IC80: 1.13 µg/mL
[18]
  IC50: 0.318 µg/mL
  IC80: 6.97 µg/mL
[19]
  IC50: < 0.001 µg/mL
  IC80: 0.009 µg/mL
[20]
  IC50: 0.02 µg/mL
  IC80: 0.091 µg/mL
[21]
  IC50: > 50 µg/mL
  IC80: > 50 µg/mL
[22]
  IC50: > 50 µg/mL
  IC80: > 50 µg/mL
[23]
  IC50: > 50 µg/mL
  IC80: > 50 µg/mL
[24]
  IC50: 0.102 µg/mL
  IC80: 0.71 µg/mL
[25]
  IC50: > 50 µg/mL
  IC80: > 50 µg/mL
[26]
  IC50, titer in TZM.bl cells: 0.009 µg/mL
  IC80, titer in TZM.bl cells: 0.038 µg/mL
[27]
  IC50: 0.032 µg/mL
  IC80: 0.552 µg/mL
[28]
  IC50, titer in TZM.bl cells: 0.073 µg/mL
  IC80, titer in TZM.bl cells: 0.376 µg/mL
[29]
  IC50: 0.093 µg/mL
  IC80: 0.248 µg/mL
[30]
  IC50: 0.002 µg/mL
  IC80: 0.039 µg/mL
[31]
  IC50, titer in TZM.bl cells: 0.351 µg/mL
  IC80, titer in TZM.bl cells: 1.39 µg/mL
[32]
  IC50, titer in TZM.bl cells: 10.3 µg/mL
  IC80, titer in TZM.bl cells: > 50 µg/mL
[33]
  IC50: > 50 µg/mL
  IC80: > 50 µg/mL
[34]
  IC50, titer in TZM.bl cells: 5.6 µg/mL
  IC80, titer in TZM.bl cells: > 50 µg/mL
[35]
  IC50: > 50 µg/mL
  IC80: > 50 µg/mL
[36]
  IC50: 0.025 µg/mL
  IC80: 0.68 µg/mL
[37]
  IC50: 0.367 µg/mL
  IC80: 11.8 µg/mL

## PGT128 (antibody)
[1]
  IC50: 0.011 µg/mL
  IC80: 0.04 µg/mL
[2]
  IC50: 0.011 µg/mL
  IC80: 0.033 µg/mL
[3]
  IC50: 0.035 µg/mL
  IC80: 0.312 µg/mL
[4]
  IC50: < 0.001 µg/mL
  IC80: 0.008 µg/mL
[5]
  IC50, titer in TZM.bl cells: > 50 µg/mL
  IC80, titer in TZM.bl cells: > 50 µg/mL
[6]
  IC50, titer in TZM.bl cells: 3.2 µg/mL
  IC80, titer in TZM.bl cells: > 50 µg/mL
[7]
  IC50: 7.87 µg/mL
  IC80: > 50 µg/mL
[8]
  IC50, titer in TZM.bl cells: 0.067 µg/mL
  IC80, titer in TZM.bl cells: 0.499 µg/mL
[9]
  IC50, titer in TZM.bl cells: > 50 µg/mL
  IC80, titer in TZM.bl cells: > 50 µg/mL
[10]
  IC50, titer in TZM.bl cells: > 50 µg/mL
  IC80, titer in TZM.bl cells: > 50 µg/mL
[11]
  IC50, titer in TZM.bl cells: 0.003 µg/mL
  IC80, titer in TZM.bl cells: 0.05 µg/mL
[12]
  IC50: 0.007 µg/mL
  IC80: 0.022 µg/mL
[13]
  IC50, titer in TZM.bl cells: > 50 µg/mL
  IC80, titer in TZM.bl cells: > 50 µg/mL
[14]
  IC50: 0.008 µg/mL
  IC80: 0.018 µg/mL
[15]
  IC50, titer in TZM.bl cells: 0.024 µg/mL
  IC80, titer in TZM.bl cells: 0.07 µg/mL
[16]
  IC50: 0.432 µg/mL
  IC80: 1.99 µg/mL
[17]
  IC50: > 50 µg/mL
  IC80: > 50 µg/mL
[18]
  IC50: 0.001 µg/mL
  IC80: 0.004 µg/mL
[19]
  IC50: 0.01 µg/mL
  IC80: 0.026 µg/mL
[20]
  IC50: > 50 µg/mL
  IC80: > 50 µg/mL
[21]
  IC50: > 50 µg/mL
  IC80: > 50 µg/mL
[22]
  IC50: 0.009 µg/mL
  IC80: 0.026 µg/mL
[23]
  IC50: > 50 µg/mL
  IC80: > 50 µg/mL
[24]
  IC50: 0.026 µg/mL
  IC80: 0.072 µg/mL
[25]
  IC50: 0.028 µg/mL
  IC80: 0.08 µg/mL
[26]
  IC50, titer in TZM.bl cells: 0.007 µg/mL
  IC80, titer in TZM.bl cells: 0.02 µg/mL
[27]
  IC50: 0.008 µg/mL
  IC80: 0.102 µg/mL
[28]
  IC50, titer in TZM.bl cells: 20.1 µg/mL
  IC80, titer in TZM.bl cells: > 50 µg/mL
[29]
  IC50: 0.017 µg/mL
  IC80: 0.041 µg/mL
[30]
  IC50: < 0.001 µg/mL
  IC80: 0.007 µg/mL
[31]
  IC50, titer in TZM.bl cells: > 50 µg/mL
  IC80, titer in TZM.bl cells: > 50 µg/mL
[32]
  IC50, titer in TZM.bl cells: 0.031 µg/mL
  IC80, titer in TZM.bl cells: 0.089 µg/mL
[33]
  IC50: 0.018 µg/mL
  IC80: 0.041 µg/mL
[34]
  IC50, titer in TZM.bl cells: > 50 µg/mL
  IC80, titer in TZM.bl cells: > 50 µg/mL
[35]
  IC50: > 50 µg/mL
  IC80: > 50 µg/mL
[36]
  IC50: > 50 µg/mL
  IC80: > 50 µg/mL
[37]
  IC50: > 50 µg/mL
  IC80: > 50 µg/mL
